Substrate in the data set: CN(C)c1ccc(/C=C/c2cc[n+](C)cc2)cc1
In words: saturation of fluorescent uptake in hOCT2-HEK293 cells (affinity, control condition). It is filed as cell-based, Homo sapiens.

B1: human organic cation transporter 2 (hOCT2) (Homo sapiens) (protein)
chain: MPTTVDDVLEHGGEFHFFQKQMFFLLALLSATFAPIYVGIVFLGFTPDHRCRSPGVAELSLRCGWSPAEELNYTVPGPGPAGEASPRQCRRYEVDWNQSTFDCVDPLASLDTNRSRLPLGPCRDGWVYETPGSSIVTEFNLVCANSWMLDLFQSSVNVGFFIGSMSIGYIADRFGRKLCLLTTVLINAAAGVLMAISPTYTWMLIFRLIQGLVSKAGWLIGYILITEFVGRRYRRTVGIFYQVAYTVGLLVLAGVAYALPHWRWLQFTVSLPNFFFLLYYWCIPESPRWLISQNKNAEAMRIIKHIAKKNGKSLPASLQRLRLEEETGKKLNPSFLDLVRTPQIRKHTMILMYNWFTSSVLYQGLIMHMGLAGDNIYLDFFYSALVEFPAAFMIILTIDRIGRRYPWAASNMVAGAACLASVFIPGDLQWLKIIISCLGRMGITMAYEIVCLVNAELYPTFIRNLGVHICSSMCDIGGIITPFLVYRLTNIWLELPLMVFGVLGLVAGGLVLLLPETKGKALPETIEEAENMQRPRKNKEKMIYLQVQKLDIPLN
notes: hOCT2 stably expressed in HEK293 cells
Turning to B1, the Michaelis-Menten constant (Km) stood at 20.5 µM.

For orientation: Km means the concentration of substrate that gives half-maximal velocity.

Values taken from article PMC11169033.
